Non-standard residues stand in square brackets, D forms with d. No end group written: not given here. pT = C[C@@H](OP(=O)(O)O)[C@H](N)C(=O)O; pS = N[C@@H](COP(=O)(O)O)C(=O)O
What follows are binders tested against T1, HLA B*0702 (human) (assay: MS of peptides eluted from HLA; L/M column: L).
T1 construct: Class I MHC molecule of the cells from which the associated phosphopeptides were detected; also called HLA-B7
YQR[pS]FDEVEGV [YQRsFDEVEGV]: binds. SPSTSRSGG[pS]SRL [SPSTSRSGGsSRL]: binds. VPR[pS]PKHAHSSSL [VPRsPKHAHSSSL]: binds. RPR[pS]PGSNSKV [RPRsPGSNSKV]: binds. SPR[pS]PGKPM [SPRsPGKPM]: binds. RPR[pS]PTGP [RPRsPTGP]: binds. FRR[pS]PTKSSLDY [FRRsPTKSSLDY]: binds. KPPH[pS]PLVL [KPPHsPLVL]: binds. RPN[pS]PSPTAL [RPNsPSPTAL]: binds. RPA[pS]AGAML [RPAsAGAML]: binds. KPQTRGK[pT]F [KPQTRGKtF]: binds. FRR[pS]PTKSSL [FRRsPTKSSL]: binds. RPKLS[pS]PAL [RPKLSsPAL]: binds. YQR[pS]FDEVEGVF [YQRsFDEVEGVF]: binds. RPSRS[pS]PGL [RPSRSsPGL]: binds. RPD[pS]RLGKTEL [RPDsRLGKTEL]: binds. FSI[pS]PVRL [FSIsPVRL]: binds. RPQRAT[pS]NVF [RPQRATsNVF]: binds. EPKRR[pS]ARL [EPKRRsARL]: binds. RSG[pS]LERKV [RSGsLERKV]: binds. SPA[pS]PKISL [SPAsPKISL]: binds. KPA[pS]PARRL [KPAsPARRL]: binds. RPF[pS]PREAL [RPFsPREAL]: binds. RRS[pS]LDAEIDSL [RRSsLDAEIDSL]: binds. KPPYRSH[pS]L [KPPYRSHsL]: binds. SPR[pS]PSTTYL [SPRsPSTTYL]: binds. RPR[pS]PSPIS [RPRsPSPIS]: binds. SPS[pS]PSVRRQL [SPSsPSVRRQL]: binds. KPA[pS]PKFIVTL [KPAsPKFIVTL]: binds. RPR[pS]PTGP[pS]NSF [RPRsPTGPsNSF]: binds. RPV[pS]PGKDI [RPVsPGKDI]: binds. RPR[pS]AVLL [RPRsAVLL]: binds. TPI[pS]PGRASGM [TPIsPGRASGM]: binds. RPA[pT]GGPGVA [RPAtGGPGVA]: binds. TPAQPQRR[pS]L [TPAQPQRRsL]: binds. RPP[pS]SEFLDL [RPPsSEFLDL]: binds. KPP[pT]PGASF [KPPtPGASF]: binds. RSL[pS]PGGAA [RSLsPGGAA]: binds. KPP[pS]PEHQSL [KPPsPEHQSL]: binds. RPAK[pS]MDSL [RPAKsMDSL]: binds. RPKPSS[pS]PV [RPKPSSsPV]: binds. RP[pS]SPALYF [RPsSPALYF]: binds. SPGLARKR[pS]L [SPGLARKRsL]: binds. RPY[pS]PPFFSL [RPYsPPFFSL]: binds. LPA[pS]PRARL [LPAsPRARL]: binds. KPR[pS]PDHVL [KPRsPDHVL]: binds. RPV[pT]PVSDL [RPVtPVSDL]: binds. RPRAN[pS]GGVDL [RPRANsGGVDL]: binds. RPP[pS]PGPVL [RPPsPGPVL]: binds. KPY[pS]PLASL [KPYsPLASL]: binds. RPQRA[pT]SNVF [RPQRAtSNVF]: binds. SPK[pS]PGLKA [SPKsPGLKA]: binds. RRK[pS]QVAEL [RRKsQVAEL]: binds. QPR[pS]PGPDYSL [QPRsPGPDYSL]: binds. RPI[pT]PPRNSA [RPItPPRNSA]: binds. RPRPH[pS]APSL [RPRPHsAPSL]: binds. RPW[pS]PAVSA [RPWsPAVSA]: binds. RSE[pS]KDRKL [RSEsKDRKL]: binds. RPR[pS]PAARL [RPRsPAARL]: binds. RPH[pS]PEKAF [RPHsPEKAF]: binds. RPPPPPD[pT]PP [RPPPPPDtPP]: binds. RTE[pS]DSGLKK [RTEsDSGLKK]: binds. SPEKAGRR[pS]SL [SPEKAGRRsSL]: binds. RPR[pS]LEVTI [RPRsLEVTI]: binds. RAP[pS]PSSRM [RAPsPSSRM]: binds. RPR[pS]PRQNSI [RPRsPRQNSI]: binds. RSL[pS]PLLF [RSLsPLLF]: binds.

These binders were tested against T2, HLA-A*0201 (human) (assay: listed as presented with class I MHC on cancer cells (leukemia or transformed B cells)).
T2 construct: also called HLA-A2
ALG[pS]RESLATI [ALGsRESLATI]: binds. AVIHQ[pS]LGL (From Protein CNPPD1, UniProt Q9BV87) [AVIHQsLGL]: binds. AMLGSK[pS]PDPYRL (From Protein SON, UniProt P18583) [AMLGSKsPDPYRL]: binds. ALD[pS]GASLLHL [ALDsGASLLHL]: binds.
